Measurements taken from the nanobody polyreactivity screen of Harvey et al. (2022).

Assay: yeast display, Sf9 membrane polyspecificity reagent, FACS + sequencing; frameworks hold sequencing errors
Procedure, shortened: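 Polyreactivity labels are assigned by the sorting gate from which each nanobody was recovered. The gates were low and high (top ~1%), set on anti-HA fluorescence for expression and streptavidin fluorescence for reagent binding. Before sorting, galactose-induced (36–48 hours) yeast display cells were stained for 1 hour at 4 °C with 10% biotinylated, detergent-solubilized Sf9 membrane reagent.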

Sequence | polyreactivity (PSR sort gate)
QVQLVESGGGLVQAGGSLRLSCAASGRSFDWDVLGWYSQVPGKERELVAAIDDSGGSTYYADSVKGRFTISRDNAKNTVYLQMNSLKPEDTAVYYCAAASYEYALDEHMDYWGQGTQVTGSS | low polyreactivity
QVQLVESGGGLVQAGGSLRLSCASSGNTFVAYAMGWYRQAPGKERELVAGITRGGTTYYADSVKGRFTISRDNAKNTVYLQMNSLKPEDTAVYYCAARLGYRYNYWGQGTQVTVSS | high polyreactivity
QVQLVESGGGLVQAGGSLRLSCAASGSIVHGYTMGWYRQEPGKERELVAAINSGDGSTYADSVKGRFPISRDNAKNTVYLQMNSLKPEDTAVYYCAADDSTLADGGDYWGQGTQVTVSS | low polyreactivity
QVQLVESGGGLVQAGGSLRLSCAASGRTFGRYAMGWYRQAPGKERELVAAISIRGGRTTYADSVKGRFTISRDNAKNTVYLQMNSLKPEDTAVSYCAKVISVRGGYGYWGQGTQVTVSS | high polyreactivity
QVQLVESGGGLVQAGGSLRLSCAASGSILYIYAMGWYRQAPGKERELVAAITSSVGRTYYADSVKGRFTISRDNAKNTVYLQMNSLKPEDTAVYYCAAEYYYSQVAYDYWGQGTQVTVSS | high polyreactivity
QVQLVESGGGLVQAGGSLRLSCAASGRIFPWNTMGWYRQAPGKERELVAGINNGDRTYYADSVKGRFTISRDNAKNTVYLQMNSLKPEDTAVYYCAVDTWYFLFQYGYYQEGDYWGQGTQVTVSS | low polyreactivity
QVQLVESGGGLVQAGGSLRLSCAASGRIFTTNAMGWYRQAPGKERELVAAITYSGGTTYYADSVKGRFTISRDNAKNTVYLQLNSLNPEDTAVYYCAADVKFSTPYDYWGQGSQVTVSS | low polyreactivity
QVQLVESGGGLVQAGGSLRLSCAASGTIFGPNAMGWYRKAPGTERELVAAITLSGGSTYYSDSVKGRFTISRDNAKNTVYLPMNSLKPEDTAVYYCAAGPDYGWRRYDYWGQGTQVTVSW | low polyreactivity
QVQLVESGGGLVQAGGSLRLSCAASGSTFPWYAMGWYRQAPGKERELVAAISFSGGSTYYADSVKGRFTISRDNAKNTVYFQMNSLKPEDTAVYYCAAVWGYVIWVDTAVYREYDYWGQGTQVTVSS | high polyreactivity
QVQLQESGGGLVQAGGSLRLRCAASRNISGSSDLGWYHQAPGKEREFVASITSGGTTYYADSVKGRFTISRDNAKNTVYLQMNSLKPEDTAVYYCAAESRYPFIYEYWGQGTQVTVSS | low polyreactivity
QVQHVESGGCLVQAGGSLRLSCAASGSIFYRYAMGWYRQGPGKESQLVAAIRRGGSTNYADSVKGRFTISRDNAKYTVSLQMNSLKPEDTAVYYCAAGRFTYAAQSYEYWGQGTQVTVSS | high polyreactivity
QVQLVESGGGLVQAGGSLRLSCAASGRIFYPNAMGWYRQAPGKERELVAAITGRGGITYYADSVKGRFTISRDNAKNTVYLQMNSLKPEDTAVYYCNAAAYYPTNYGGYLFEYWGQGTQVTVSS | low polyreactivity
QVQLVESGGGLVQAGGSLRLSCAASGSIFGFYAMGWYRQAPGKERELVAAITRSGDSTYADSVKGRFTISRDNAKNTVYLQMNSLKPEDTAVYYCATYWQYRYDYWGQGTQVTVSS | low polyreactivity
QVQLVESGGGLVQAGGSLRLSCAASGSIFKYYAMGWYRQAPGKERQLVAVITSGGSTYYADSVKGRFTISRDNAKNTVYLQMNSLKPEDTAVYYCAAGVRAYNWGEYDYWGLGTQVTVSS | low polyreactivity
QVQLVESRGGLVQAGGSLRLSCAASGATFNHYAMGWYRQAPGKERELVAAITKSGGSTYADSVKGRFTISRDNAKKTVYLQMNSLKPEDTAVYYCAAGRRKYGTKGRGDYWGQGSQVTVSS | low polyreactivity
QVQLVESGGGLVQAGGSLRLSCAASGIIFLNYAMGWYRQAPGKERELVAAITTSGGNTYYADSVKGRFTISRDNAKNTVYLQMNSLKPEDTAVYYCAATDLYFWYPYWFAFEYDYWGQGTQVTVSS | high polyreactivity

Sequence | polyreactivity (PSR sort gate)
QVQLVESGGGLVQAGGSLRLSSAASGSIFYPYAMGWYRQAPGKARELVSTISWRGGSTYYADSVKGRFTISRDNAKNTDYVQMNRLKPEVTAVYYCAARKRPYSVINGMDYWGQGTQVTVSS | low polyreactivity
QVQLVESGGGLVQAGGSLRLSCAASGSIFSSNAMGWYRQAPGKERELVAAITGSDGSTYYADSVKGRFTISRDNAKNTVYLQMNSLKPEDTAVYYCAAVGRYYYFDGFYYWGQGTQVTVSS | low polyreactivity
QVQLVESGGGLVQAGGSLRLSCAASGSIFPYVNAMGWYRQAPGKERELVASIPGGGGTKYADSVKGRFTISRDNAKNTVYLQMNSLKPEDTAVYYCNATSGNPASTAWMNYWGQGTQVTVSS | low polyreactivity
QVQLVESGGGLVQAGGSLRLSCAASGSIFDKNAMGWYRQAPGKERELVAAISRSGGRTYYADSVKGRFTISRDNAKNTVYLQMNSLKPEDTAVYYCNAVYYYRPYWRQSTLSQYGYWGQGTQVTVSS | high polyreactivity
QVQLVESGGGLVQAGGSLRLSCAASGRIFPSYAMGWYRQAPGKERELVAAISSSGGRTYYADSVKGRFTISRDNAKNTVYLQMNSLKPEDTAVYYCAARWVQYGVRYDYWGQGTQVTVSS | high polyreactivity
QVQLVESGGGLVQAGGSLRLSCAASGSTFWLYVMGWYRQAPGKERELVAAISSSGGRTYYADSVKGRFTISRDNAKNTVYLQMNSLKPEDTAVYYCNKYGTALWRYYYWGQGTQVTVSS | high polyreactivity
QDQLVESGGGLVQAGGSLRLSCPASGRTFNYYAMGWYRQAPGKERELVAAISVSTTRTYYADSVKGRFTISRDNAKNTVYLQMNSLKPEDTAVYYCAAYRAGRFGYLGQGTQVTVSS | high polyreactivity
QVQLVESGGGLVQAGGSLRLSCAAYGNIFHRNAMGWYRKAPGKESEVVAAISWSGGSTYYADSVKGRFTISRDNAKNTVYLQMNSLKPEDTAVYYCNAYYYYRFKQSHPGLRSYYWGQGTQVTVSS | high polyreactivity
QVQLVESGGGLVQAGGSLRLSCAASGIIFRQYAMGWSRQEPGKERELVAGITGTGSTYYADSVKGRFTISRDNAKNTVYLQLNSLKPEETAVYYCATRSFRVFYPYPYDYWGQGTQVTVSS | high polyreactivity
QVQLVESGGGLVQAGGSLRLSCAASGSIFDFYAMGWYRQAPGKERELVATITASGGSTYYADSVKGRFTISRDNAKNTVYLQMNSLKPEDTAVSYCNADSVYWGQGTQVTVSS | low polyreactivity
QDQLVESGGGLVQAGGSLRLSCAASGSIFSVYVMGWYRQAPGKERELVATISSGGGTYYADSVKGRFTISRDNAKNTVYLQMNSLKPEDTAVYYCNADWDDWKGDYWGQGTQVTVSS | low polyreactivity
QVQLVESGGGLVQAGGSLRLSCAASGITFVHYAMGWYRQAPGKEREFVAAITKGGGSTSYADSVKGRFTISRDNAKNTVYLQMNSLKPEDTAVYYCAATYYAYGFSISYYYWGQGTQVTVSS | high polyreactivity
QVQLVESGRGLFQAGRSLRISCAASGSIFSYNTMGWYREAPGKERELVASISSGGRTYYADSVKGRFTISRDNAKNTVYLQMNSLKPVDTAVYDCARVPYAYLPYKPFQQYSYDYWGQGTQVTVSS | high polyreactivity
QVQLVESGGGLVQAGGSLRLICAASGFTFRGYAMGWYRQAPGKERELVAAIRRGVITNYADSVNGRFTISRDNAKNTVYLQMNSLKPEDTAVYYCAAGNITPYRYYHGYYQSIYDYWGQGTIVTVSS | low polyreactivity
QVQLVESGGGLVQAGGSLRLICAASGSTFGVNAMGWYRQAPGKERELVAAITQSGGSTFYADSVKGRFTISRDKAKNTVYLQMNSLKPEDTAVYYWGQGTQVTVSS | low polyreactivity
QVQLVESGGGLVQAGGSLRLSCAASGRTFVSNAMGWYRQAPGKERELVAAISFSGDSTYYADSVKGRFTISRDNAKKTVYLQMNSLKPEDTAVYYCRFYSYWSWLGREYDYWGQGTQVTVSS | low polyreactivity
